Reference: US9260500B2, “Peptide and use thereof” (Takeda Pharmaceutical Company Limited, priority 2009, dated 2016)
Non-standard residues stand in square brackets, D forms with d. Primed or numbered codes have the meaning given here. No end group written: not given here. *: point of attachment. tBuAla = CC(C)(C)C[C@H](N)C(=O)O; 4Pal = N[C@@H](Cc1ccncc1)C(=O)O; d(pGlu) = O=C1CC[C@H](C(=O)O)N1; Cha = N[C@@H](CC1CCCCC1)C(=O)O; Gly(N-CH2CH2OH) = O=C(O)CNCCO; Isobutyryl = CC(C)C(=O)*; NMeA = CN[C@@H](C)C(=O)O; PEG2′ = not defined here; Abu = CC[C@H](N)C(=O)O; Nleu = CC(C)CNCC(=O)O; Aib = CC(C)(N)C(=O)O; Aoc = NCCCCCCCC(=O)O; Inp = O=C(O)C1CCNCC1; Ahx = NCCCCCC(=O)O

What was measured:
human Y2 receptor [1] = target: T1, human Y2 receptor (Homo sapiens, UniProt P49146); experiment: Receptor Binding Assay (RBA) for Human Y2, [125I]-PYY displacement on hY2R/CHO membrane fraction; conditions: IC50 of test compound/IC50 of PYY(3-36) (PYY(3-36) taken as 1)
T1 construct: expressed in transfected cells; membrane fraction
T1 sequence (P49146 1-381): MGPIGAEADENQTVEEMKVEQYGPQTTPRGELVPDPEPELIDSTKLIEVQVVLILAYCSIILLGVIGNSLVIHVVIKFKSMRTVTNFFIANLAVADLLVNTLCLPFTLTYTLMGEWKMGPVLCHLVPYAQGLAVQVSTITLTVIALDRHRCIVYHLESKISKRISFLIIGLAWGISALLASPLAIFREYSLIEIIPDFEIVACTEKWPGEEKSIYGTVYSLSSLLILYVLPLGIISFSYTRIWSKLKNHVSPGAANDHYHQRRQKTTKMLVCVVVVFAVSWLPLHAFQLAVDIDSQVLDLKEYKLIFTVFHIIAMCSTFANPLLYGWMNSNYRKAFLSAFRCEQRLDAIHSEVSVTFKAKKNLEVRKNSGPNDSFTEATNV
Method in brief: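 hY2R stably expressed in CHO/dhfr− cells; membrane fraction prepared from cells disrupted in 10 mM NaHCO3, 5 mM EDTA buffer with protease inhibitors. Binding read as displacement of [125I]-PYY.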

human Y2 receptor [2] = target: T1, human Y2 receptor; experiment: Human Y2 Receptor G Protein Binding Assay (GBA), [35S]GTPγS; format: biochemical; conditions: EC50 of test compound/EC50 of PYY(3-36) (PYY3-36 taken as 1), hY2R/CHO membrane fraction
Method in brief: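 Agonism measured as [35S]GTPγS binding, read by GF/C filtration and scintillation counting after 120 min at room temperature, using human Y2 membranes at 1 μg protein/mL in pH 7.4 Tris/MgCl2/NaCl/GDP buffer. Compound serially diluted 100 μM–1 nM; EC50 normalized to PYY(3-36) (ratio = compound/PYY).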

Substance	RBA IC50 Ratio (human Y2 receptor [1])	GBA EC50 Ratio (human Y2 receptor [2])
Isobutanoyl-[D-Pro24, Pya(4)26, Cha27,36, Aib28,31, Lys30]-PYY(23-36) (Isobutyryl-S[dP]R[4Pal][Cha][Aib]NK[Aib]TRQR[Cha]-NH2; SMILES CC(C)C(=O)N[C@@H](CO)C(=O)N1CCC[C@@H]1C(=O)N[C@@H](CCCNC(=N)N)C(=O)N[C@@H](Cc1ccncc1)C(=O)N[C@@H](CC1CCCCC1)C(=O)NC(C)(C)C(=O)N[C@@H](CC(N)=O)C(=O)N[C@@H](CCCCN)C(=O)NC(C)(C)C(=O)N[C@H](C(=O)N[C@@H](CCCNC(=N)N)C(=O)N[C@@H](CCC(N)=O)C(=O)N[C@@H](CCCNC(=N)N)C(=O)N[C@@H](CC1CCCCC1)C(N)=O)[C@@H](C)O) [compound No. 212]	0.79	0.89
Isobutanoyl-[Glu23, D-Pro24, Pya(4)26, Cha27,36, Aib28,31, Lys30]-PYY(23-36) (Isobutyryl-E[dP]R[4Pal][Cha][Aib]NK[Aib]TRQR[Cha]-NH2; SMILES CC(C)C(=O)N[C@@H](CCC(=O)O)C(=O)N1CCC[C@@H]1C(=O)N[C@@H](CCCNC(=N)N)C(=O)N[C@@H](Cc1ccncc1)C(=O)N[C@@H](CC1CCCCC1)C(=O)NC(C)(C)C(=O)N[C@@H](CC(N)=O)C(=O)N[C@@H](CCCCN)C(=O)NC(C)(C)C(=O)N[C@H](C(=O)N[C@@H](CCCNC(=N)N)C(=O)N[C@@H](CCC(N)=O)C(=O)N[C@@H](CCCNC(=N)N)C(=O)N[C@@H](CC1CCCCC1)C(N)=O)[C@@H](C)O) [compound No. 214]	1.9	2.0
Isobutanoyl-[Glu23, D-Pro24, Pya(4)26, Cha27,36, Leu(Me)28, Lys30, Aib31]-PYY(23-36) (Isobutyryl-E[dP]R[4Pal][Cha][tBuAla]NK[Aib]TRQR[Cha]-NH2; SMILES CC(C)C(=O)N[C@@H](CCC(=O)O)C(=O)N1CCC[C@@H]1C(=O)N[C@@H](CCCNC(=N)N)C(=O)N[C@@H](Cc1ccncc1)C(=O)N[C@@H](CC1CCCCC1)C(=O)N[C@@H](CC(C)(C)C)C(=O)N[C@@H](CC(N)=O)C(=O)N[C@@H](CCCCN)C(=O)NC(C)(C)C(=O)N[C@H](C(=O)N[C@@H](CCCNC(=N)N)C(=O)N[C@@H](CCC(N)=O)C(=O)N[C@@H](CCCNC(=N)N)C(=O)N[C@@H](CC1CCCCC1)C(N)=O)[C@@H](C)O) [compound No. 170]	0.43	0.88
N-4-Pyridiniyl-[Pic(4)23, D-Pro24, Cha27,28,36, Aib31]-PYY(23-36) ([Inp][dP]RH[Cha][Cha]NL[Aib]TRQR[Cha]-NH2; not fully specified (N-terminus); printed as N-4-Pyridiniyl-[Pic(4)23, D-Pro24, Cha27,28,36, Aib31]-PYY(23-36)) [compound No. 125]	4	3.4
Piperidinocarbonyl-[Glu23, D-Pro24, Pya(4)26, Cha27,36, Aib28,31, Lys30]-PYY(23-36) (piperidinocarbonyl-E[dP]R[4Pal][Cha][Aib]NK[Aib]TRQR[Cha]-NH2) [compound No. 193]	3.3	2.4
[(PEG2)23, D-Pro24, Cha27,28,36, Aib31]-PYY(23-36) ([PEG2′][dP]RH[Cha][Cha]NL[Aib]TRQR[Cha]-NH2) [compound No. 118]	0.9	0.9
[Acp23, D-Pro24, Pya(4)26, Cha27,36, Aib28,31, Lys30]-PYY(23-36) (Ac-[Ahx][dP]R[4Pal][Cha][Aib]NK[Aib]TRQR[Cha]-NH2) [compound No. 304]	0.32	1.1
[Aoc(8)23, D-Pro24, Cha27,28,36, Aib31]-PYY(23-36) ([Aoc][dP]RH[Cha][Cha]NL[Aib]TRQR[Cha]-NH2; N-terminus assumed; SMILES CC(C)C[C@H](NC(=O)[C@H](CC(N)=O)NC(=O)[C@H](CC1CCCCC1)NC(=O)[C@H](CC1CCCCC1)NC(=O)[C@H](Cc1c[nH]cn1)NC(=O)[C@H](CCCNC(=N)N)NC(=O)[C@H]1CCCN1C(=O)CCCCCCCN)C(=O)NC(C)(C)C(=O)N[C@H](C(=O)N[C@@H](CCCNC(=N)N)C(=O)N[C@@H](CCC(N)=O)C(=O)N[C@@H](CCCNC(=N)N)C(=O)N[C@@H](CC1CCCCC1)C(N)=O)[C@@H](C)O) [compound No. 117]	2.1	1.9
[D-Ser23, Abu26, Cha27,28,36, Aib31]-PYY(23-36) ([dS]LR[Abu][Cha][Cha]NL[Aib]TRQR[Cha]-NH2; N-terminus assumed; SMILES CC[C@H](NC(=O)[C@H](CCCNC(=N)N)NC(=O)[C@H](CC(C)C)NC(=O)[C@H](N)CO)C(=O)N[C@@H](CC1CCCCC1)C(=O)N[C@@H](CC1CCCCC1)C(=O)N[C@@H](CC(N)=O)C(=O)N[C@@H](CC(C)C)C(=O)NC(C)(C)C(=O)N[C@H](C(=O)N[C@@H](CCCNC(=N)N)C(=O)N[C@@H](CCC(N)=O)C(=O)N[C@@H](CCCNC(=N)N)C(=O)N[C@@H](CC1CCCCC1)C(N)=O)[C@@H](C)O) [compound No. 85]	15	11
[D-pGlu24, Pya(4)26, Cha27,36, Aib28,31, Lys30]-PYY(24-36) ([d(pGlu)]R[4Pal][Cha][Aib]NK[Aib]TRQR[Cha]-NH2; SMILES C[C@@H](O)[C@H](NC(=O)C(C)(C)NC(=O)[C@H](CCCCN)NC(=O)[C@H](CC(N)=O)NC(=O)C(C)(C)NC(=O)[C@H](CC1CCCCC1)NC(=O)[C@H](Cc1ccncc1)NC(=O)[C@H](CCCNC(=N)N)NC(=O)[C@H]1CCC(=O)N1)C(=O)N[C@@H](CCCNC(=N)N)C(=O)N[C@@H](CCC(N)=O)C(=O)N[C@@H](CCCNC(=N)N)C(=O)N[C@@H](CC1CCCCC1)C(N)=O) [compound No. 250]	2	1.1
[Lys(Ac)23, D-Pro24, Cha27,28,36, Aib31]-PYY(23-36) (K(Ac)[dP]RH[Cha][Cha]NL[Aib]TRQR[Cha]-NH2; N-terminus assumed; SMILES CC(=O)NCCCC[C@H](N)C(=O)N1CCC[C@@H]1C(=O)N[C@@H](CCCNC(=N)N)C(=O)N[C@@H](Cc1c[nH]cn1)C(=O)N[C@@H](CC1CCCCC1)C(=O)N[C@@H](CC1CCCCC1)C(=O)N[C@@H](CC(N)=O)C(=O)N[C@@H](CC(C)C)C(=O)NC(C)(C)C(=O)N[C@H](C(=O)N[C@@H](CCCNC(=N)N)C(=O)N[C@@H](CCC(N)=O)C(=O)N[C@@H](CCCNC(=N)N)C(=O)N[C@@H](CC1CCCCC1)C(N)=O)[C@@H](C)O) [compound No. 163]	5.4	2.5
[MeAla22, D-Pro24, Cha27,28,36, Aib31]-PYY(22-36) ([NMeA]S[dP]RH[Cha][Cha]NL[Aib]TRQR[Cha]-NH2; N-terminus assumed; SMILES CN[C@@H](C)C(=O)N[C@@H](CO)C(=O)N1CCC[C@@H]1C(=O)N[C@@H](CCCNC(=N)N)C(=O)N[C@@H](Cc1c[nH]cn1)C(=O)N[C@@H](CC1CCCCC1)C(=O)N[C@@H](CC1CCCCC1)C(=O)N[C@@H](CC(N)=O)C(=O)N[C@@H](CC(C)C)C(=O)NC(C)(C)C(=O)N[C@H](C(=O)N[C@@H](CCCNC(=N)N)C(=O)N[C@@H](CCC(N)=O)C(=O)N[C@@H](CCCNC(=N)N)C(=O)N[C@@H](CC1CCCCC1)C(N)=O)[C@@H](C)O) [compound No. 123]	0.6	0.72
[N(2-hydroxyethyl)Gly23, D-Pro24, Cha27,28,36, Aib31]-PYY(23-36) ([Gly(N-CH2CH2OH)][dP]RH[Cha][Cha]NL[Aib]TRQR[Cha]-NH2; N-terminus assumed; SMILES CC(C)C[C@H](NC(=O)[C@H](CC(N)=O)NC(=O)[C@H](CC1CCCCC1)NC(=O)[C@H](CC1CCCCC1)NC(=O)[C@H](Cc1c[nH]cn1)NC(=O)[C@H](CCCNC(=N)N)NC(=O)[C@H]1CCCN1C(=O)CNCCO)C(=O)NC(C)(C)C(=O)N[C@H](C(=O)N[C@@H](CCCNC(=N)N)C(=O)N[C@@H](CCC(N)=O)C(=O)N[C@@H](CCCNC(=N)N)C(=O)N[C@@H](CC1CCCCC1)C(N)=O)[C@@H](C)O) [compound No. 134]	2.0	1.2
[N(iBu)Gly23, D-Pro24, Cha27,28,36, Aib31]-PYY(23-36) ([Nleu][dP]RH[Cha][Cha]NL[Aib]TRQR[Cha]-NH2; N-terminus assumed; SMILES CC(C)CNCC(=O)N1CCC[C@@H]1C(=O)N[C@@H](CCCNC(=N)N)C(=O)N[C@@H](Cc1c[nH]cn1)C(=O)N[C@@H](CC1CCCCC1)C(=O)N[C@@H](CC1CCCCC1)C(=O)N[C@@H](CC(N)=O)C(=O)N[C@@H](CC(C)C)C(=O)NC(C)(C)C(=O)N[C@H](C(=O)N[C@@H](CCCNC(=N)N)C(=O)N[C@@H](CCC(N)=O)C(=O)N[C@@H](CCCNC(=N)N)C(=O)N[C@@H](CC1CCCCC1)C(N)=O)[C@@H](C)O) [compound No. 133]	5.8	2.4
